For 116 sequences, protein stability index results are on record in the supplement of paper PMC10724198.

± gives the standard deviation of the averaged measurements.
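Note: PSI is a weighted mean of sequencing reads over stability bins, variants kept only with over 10 reads, mCherry proximal and sfGFP distal, peptide attached via GGGS linker.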

The data set concerns Saccharomyces cerevisiae. The experiment in a line: protein stability index of tFT-peptide fusion (C-terminal peptide) (PSI (0-1 scale)); higher = more stable (slower turnover). The conditions noted are these: genetic background: wild type; temperature: 30 C.
Sequence GWGRGGFRVVVG showed a protein stability index of 0.712 ± 0.02. As to GWLASPHFPYAY, the protein stability index amounted to 0.6883 ± 0.001. GWLIWRVYGGGG showed a protein stability index of 0.654 ± 0.014. GWSRCVFGGYRL had a protein stability index of 0.7 ± 0.022. For GWSSTLTFLGGA, the protein stability index is 0.701 ± 0.0078. The result for GWTQFVLHSMFG reads 0.72 ± 0.088. As for GWVPCGSWRVPG, the figure is 0.631 ± 0.038; as for GWVQRGAEARRE, 0.705 ± 0.047. GWWGCGASVCGV: the protein stability index amounted to 0.72 ± 0.15. In turn, GYARESERFGIH returned a protein stability index of 0.694 ± 0.011. GYFHADYIPLSY came in with a protein stability index of 0.7474 ± 0.0029. For GYGPSFALRPDS, the protein stability index amounted to 0.651 ± 0.026. Consider GYGWGVGWGFGR, for which the protein stability index stood at 0.673 ± 0.028. Take GYMRMGLCVYSD: the protein stability index was found to be 0.596 ± 0.092. GYRGMERGEGGG returned a protein stability index of 0.723 ± 0.068.

Consider GYTSRGISFLRA, for which the protein stability index stood at 0.698 ± 0.042. Regarding GYVVVGGGGGLG, the protein stability index is 0.717 ± 0.039.

For the sequence HAQRTSSRRAKS, the protein stability index is 0.711 ± 0.019. HARFRPRKAVGD registered a protein stability index of 0.67 ± 0.042. Sequence HATFSLFLASCY showed a protein stability index of 0.625 ± 0.011. In turn, HCLIPGEIHRIS came in with a protein stability index of 0.6741 ± 0.0037. HCRDCLVLIQFN returned a protein stability index of 0.664 ± 0.048.

In turn, HCSLRPRPNHAR came in with a protein stability index of 0.746 ± 0.032. As for HDHEARHSDSLN, the figure is 0.658 ± 0.026; as for HDRRGLRRISAT, 0.647 ± 0.0084. HEHFRDRAGPAS showed a protein stability index of 0.636 ± 0.017. For the sequence HEVRGVFWNPRF, the protein stability index was 0.712 ± 0.053. In the case of HFPIPPSLFFRP, the protein stability index is 0.631 ± 0.019.

Regarding HGLFGRACRASH, the protein stability index stood at 0.66 ± 0.043.

Consider HGTVQNIVARYV, for which the protein stability index was determined as 0.611 ± 0.026. Take HHGCATVTSRAS: the protein stability index came to 0.654 ± 0.042. The result for HHPKTCHHLSRA reads 0.6853 ± 0.0037; that for HHRNNTPLNHSY, 0.63 ± 0.007; that for HIFQRMCKDMQL, 0.6296 ± 0.0037. In turn, HIKAEKRKKKTS gave a protein stability index of 0.608 ± 0.024. As for HISRTLVDADIG, the figure is 0.66928 ± 8e-05. For HISTQREEIDPA, the protein stability index turned out to be 0.6506 ± 0.00086. In turn, HITTNHLPTSCD came in with a protein stability index of 0.73 ± 0.039.

HLGIGTRVWEFG returned a protein stability index of 0.716 ± 0.061. HLLLGPRSPPSP displayed a protein stability index of 0.661 ± 0.022.

HLPASLHLDYSI registered a protein stability index of 0.675 ± 0.043. In the case of HLPPFLRPPFPL, the protein stability index came to 0.686 ± 0.017. As for HLSNPRPPPPTR, the protein stability index amounted to 0.703 ± 0.016. As to HNMSDARRPSNI, the protein stability index was determined as 0.702 ± 0.021.

HPCKKEKLYHLK showed a protein stability index of 0.594 ± 0.091. HPDAGTAARDTD came in with a protein stability index of 0.648 ± 0.092. HPFGHSFLTAPF returned a protein stability index of 0.793 ± 0.16. Consider HPGPAPPPPRGP, for which the protein stability index amounted to 0.66 ± 0.019. The sequence HPLLPRPVPLTD yielded a protein stability index of 0.665 ± 0.059.

The sequence HPLPSSHLPPRP gave a protein stability index of 0.75 ± 0.15.

Sequence HPLPTPSPHLSP registered a protein stability index of 0.728 ± 0.016. Sequence HPPLPLPCAFPP returned a protein stability index of 0.7 ± 0.033. The result for HPPLPPPPIVPS reads 0.696 ± 0.067; that for HPPLSPPSALFL, 0.719 ± 0.069; that for HPPPPAAKVAPV, 0.629 ± 0.048. As for HPPPTHAQGRLV, the figure is 0.671 ± 0.021. On to HPPTSPGGLRQP, for which the protein stability index worked out at 0.686 ± 0.0069. Sequence HPSRPARPTRHP had a protein stability index of 0.806 ± 0.072. For HPTTHYLPRPAH, the protein stability index is 0.6779 ± 0.0022. The result for HPVPSPSLRPPP reads 0.716 ± 0.072. The result for HRCLSRTVSPPS reads 0.671 ± 0.04; that for HRKNKYKRKTTK, 0.676 ± 0.05; that for HRVRVRVYTCGF, 0.634 ± 0.05. As for HSGLTGLRRLVA, the figure is 0.594 ± 0.012; as for HSLPPPCLHSTP, 0.683 ± 0.021; as for HSPHISAPPLPY, 0.588 ± 0.024. The sequence HSPPPPPALLPL yielded a protein stability index of 0.66 ± 0.028.

In turn, HSPTPLLPPSPS showed a protein stability index of 0.727 ± 0.045. Sequence HSRKVHGLWALR returned a protein stability index of 0.695 ± 0.0081.

Take HSSFCIVIRVSR: the protein stability index came out at 0.5125 ± 0.001. As for HTKHSQIIKHQS, the figure is 0.641 ± 0.03; as for HTTPGPYVLPWP, 0.807 ± 0.06. As for HVALPAFKQLSG, the protein stability index worked out at 0.746 ± 0.051. As for HVLQFQTNIRQN, the figure is 0.636 ± 0.1; as for HVLSQSLSALPC, 0.681 ± 0.044; as for HVPGKWTLGFGI, 0.761 ± 0.054. The sequence HVSINERFKSMY had a protein stability index of 0.717 ± 0.025. As for HVTLGRGGVGPN, the protein stability index is 0.681 ± 0.02. As for IACGAGGRGFSC, the figure is 0.721 ± 0.025; as for IAISAPSLLDTS, 0.643 ± 0.026. As for IALLQRTSSTPD, the protein stability index amounted to 0.748 ± 0.028. Take IARLLFPPPGPI: the protein stability index stood at 0.643 ± 0.037. As for IASLVSVCFLRD, the figure is 0.683 ± 0.029. In turn, IASNAENCDVGV gave a protein stability index of 0.695 ± 0.11.

In turn, ICFGCLSWAGSW had a protein stability index of 0.554 ± 0.057.

As for ICLLGTSSQRRD, the protein stability index turned out to be 0.705 ± 0.0077.

Sequence ICPWLLPPSCRS displayed a protein stability index of 0.738 ± 0.015. The result for ICSDGIYTKGLC reads 0.66 ± 0.024; that for ICSFVFTTLFGG, 0.6442 ± 0.0026. As for ICVSVLIRHREL, the protein stability index turned out to be 0.545 ± 0.019. IDRSHFAGVIVC registered a protein stability index of 0.5735 ± 0.0029. The result for IEESNKKIKNEI reads 0.713 ± 0.032; that for IEITERRQKKIQ, 0.699 ± 0.088; that for IENREVNIVERT, 0.686 ± 0.011.

IENVETSLKVVG showed a protein stability index of 0.651 ± 0.0081. Turning to IESKANPRRIEV, the protein stability index stood at 0.696 ± 0.027.

For IFCCFFPRFPVF, the protein stability index amounted to 0.642 ± 0.013.

Consider IFKAIDQTYTDK, for which the protein stability index amounted to 0.758 ± 0.15. As to IFWVGLSYVAEQ, the protein stability index amounted to 0.65 ± 0.0084.

IGARESGGWSLC: the protein stability index came out at 0.686 ± 0.023. The sequence IGFHSGLFYYHC came in with a protein stability index of 0.594 ± 0.056.

IGGAPRIETIYP gave a protein stability index of 0.704 ± 0.074. Turning to IGGLAGFGSALT, the protein stability index is 0.759 ± 0.12. The result for IGGPIIYTGRLH reads 0.682 ± 0.19; that for IGISIRTAQGEL, 0.674 ± 0.02. Consider IGMICYGKDTQY, for which the protein stability index turned out to be 0.726 ± 0.0073. In the case of IGRWHCPDLPRH, the protein stability index came out at 0.653 ± 0.12.

Regarding IGWFGRCGCCCW, the protein stability index amounted to 0.714 ± 0.2. In turn, IGYSSIYKTTGT came in with a protein stability index of 0.668 ± 0.033.

Consider IHLGVLTAFGLS, for which the protein stability index stood at 0.701 ± 0.032. IIAGGGPARGCG had a protein stability index of 0.635 ± 0.0071. Consider IIGPFDSYVYGL, for which the protein stability index was 0.7 ± 0.0071. IIGVKNEGRGRE showed a protein stability index of 0.724 ± 0.089.

IILKEDKSIKKR came in with a protein stability index of 0.6595 ± 0.0032. As for IITAARGDTLSR, the figure is 0.706 ± 0.018; as for IKDESNLKKHKN, 0.715 ± 0.041.
